The results in this text go back to article PMC11982978 (2025).

Square brackets hold non-standard residues; d marks the D form. Ends that are not written are not given here.

The target of the test is Active phosphorylated His6-tagged ERK2 WT (rat (p-0033 says mouse), UniProt P63086 3-358, phosphorylated (active form; sites not given)).

In the case of [dL][dC][dA][dR][dR]G[dL][dY][dC][dL][dS][dL][dD][dH] (cysteine pairing not given here) [FAAP100 D-peptide], half-maximal inhibition (IC50) was put at 92 µM. This counts as double-digit micromolar.
